In experiment [1] the target is T1, rat LINGO-1 expressed on CHO-K1 cells (CHO-K1-rLINGO-1) (rat, UniProt A0A8I5ZPI2 34-614).
T1 construct: range 34-614; not shown: 2 amino acid residue linker
T1 sequence: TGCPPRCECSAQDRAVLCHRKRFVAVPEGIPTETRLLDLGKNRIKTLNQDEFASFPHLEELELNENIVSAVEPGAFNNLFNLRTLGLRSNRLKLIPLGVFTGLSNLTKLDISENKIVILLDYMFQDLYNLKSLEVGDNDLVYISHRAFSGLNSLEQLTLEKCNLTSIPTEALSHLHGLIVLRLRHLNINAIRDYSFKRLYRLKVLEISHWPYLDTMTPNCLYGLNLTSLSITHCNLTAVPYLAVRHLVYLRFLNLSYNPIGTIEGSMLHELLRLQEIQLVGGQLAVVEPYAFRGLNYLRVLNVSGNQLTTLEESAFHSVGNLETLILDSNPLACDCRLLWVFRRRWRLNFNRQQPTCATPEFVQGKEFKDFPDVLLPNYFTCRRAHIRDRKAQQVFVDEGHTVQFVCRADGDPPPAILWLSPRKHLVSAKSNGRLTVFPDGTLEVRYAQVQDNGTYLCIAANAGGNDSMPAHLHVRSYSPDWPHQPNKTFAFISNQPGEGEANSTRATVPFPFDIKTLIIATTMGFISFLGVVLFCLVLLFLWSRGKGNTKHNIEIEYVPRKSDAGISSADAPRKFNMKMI
The experiment in a line: apparent KD, FACS saturation binding on CHO-K1-rLINGO-1 cells, IgG4 format. How it is done: (§1) Cell based affinity of anti-LINGO-1 specific antibodies is determined by FACS saturation binding experiments. The determination of the apparent KD values is carried out identical to the procedure described above using anti-LINGO-1 Fab antibodies.
(§2) In detail, CHO-K1-hLINGO-1, CHO-K1-cmLINGO-1 or CHO-K1-rLINGO-1 are detached from culture flasks by versene, washed with FACS buffer and resuspended in FACS buffer. Purified anti-LINGO-1 IgG4s are serially diluted in FACS buffer and spread into round bottom 96-well microtiter plates (NUNC™, Wiesbaden, Germany). For each concentration, duplicate wells are incubated with 1.25×10⁴ cells for 30-60 min on ice in a total volume of 100 μl. […] Using this assay the following apparent KD values can be determined (Table 3).

The target of experiment [2] is human LINGO-1 expressed on CHO-K1 cells (CHO-K1-hLINGO-1) (human) (UniProt Q96FE5). Nature of the experiment: apparent KD, FACS saturation binding on CHO-K1-hLINGO-1 cells, IgG4, with 50% human cerebro-spinal fluid.
The target of experiment [3] is T2, cynomolgus monkey LINGO-1 expressed on CHO-K1 cells (CHO-K1-cmLINGO-1) (cynomolgus monkey, UniProt Q9N008 34-614).
T2 construct: range 34-614; also called Cynomolgus LINGO-1; not shown: 2 amino acid residue linker
T2 sequence (looked up): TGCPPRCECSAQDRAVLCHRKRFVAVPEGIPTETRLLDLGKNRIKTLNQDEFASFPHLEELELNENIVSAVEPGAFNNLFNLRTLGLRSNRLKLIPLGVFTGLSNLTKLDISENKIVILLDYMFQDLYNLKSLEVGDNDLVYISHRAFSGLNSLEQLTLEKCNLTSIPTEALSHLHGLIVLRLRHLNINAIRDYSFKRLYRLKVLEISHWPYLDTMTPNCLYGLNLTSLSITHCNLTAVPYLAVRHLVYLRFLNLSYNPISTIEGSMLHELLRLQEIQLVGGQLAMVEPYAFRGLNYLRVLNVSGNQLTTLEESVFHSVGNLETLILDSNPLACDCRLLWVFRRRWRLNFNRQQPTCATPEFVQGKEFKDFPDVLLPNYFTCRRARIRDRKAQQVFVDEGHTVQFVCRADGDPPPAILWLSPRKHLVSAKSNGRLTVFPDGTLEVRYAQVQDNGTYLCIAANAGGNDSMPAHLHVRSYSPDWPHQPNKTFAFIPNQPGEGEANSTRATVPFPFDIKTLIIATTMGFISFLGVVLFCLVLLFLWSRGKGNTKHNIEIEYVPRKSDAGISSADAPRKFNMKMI
Nature of the experiment: apparent KD, FACS saturation binding on CHO-K1-cmLINGO-1 cells, IgG4 format. Here is the method:
as §1, §2

For experiment [4], the target named is human LINGO-1 expressed on CHO-K1 cells (CHO-K1-hLINGO-1) (human) (UniProt Q96FE5). The experiment in a line: apparent KD, FACS saturation binding on CHO-K1-hLINGO-1 cells, IgG4 pre-incubated in FACS buffer.
For experiment [5] the target is unchanged. Nature of the experiment: ratio of apparent KDs, FACS saturation binding on CHO-K1-hLINGO-1 cells, IgG4, without against with 50% human CSF.
Experiment [6] concerns the target T3, human LINGO-2 expressed on CHO-K1 cells (CHO-K1-hLINGO-2) (human, UniProt Q7L985 26-606).
T3 construct: range 26-606; not shown: 2 amino acid residue linker
T3 sequence (looked up): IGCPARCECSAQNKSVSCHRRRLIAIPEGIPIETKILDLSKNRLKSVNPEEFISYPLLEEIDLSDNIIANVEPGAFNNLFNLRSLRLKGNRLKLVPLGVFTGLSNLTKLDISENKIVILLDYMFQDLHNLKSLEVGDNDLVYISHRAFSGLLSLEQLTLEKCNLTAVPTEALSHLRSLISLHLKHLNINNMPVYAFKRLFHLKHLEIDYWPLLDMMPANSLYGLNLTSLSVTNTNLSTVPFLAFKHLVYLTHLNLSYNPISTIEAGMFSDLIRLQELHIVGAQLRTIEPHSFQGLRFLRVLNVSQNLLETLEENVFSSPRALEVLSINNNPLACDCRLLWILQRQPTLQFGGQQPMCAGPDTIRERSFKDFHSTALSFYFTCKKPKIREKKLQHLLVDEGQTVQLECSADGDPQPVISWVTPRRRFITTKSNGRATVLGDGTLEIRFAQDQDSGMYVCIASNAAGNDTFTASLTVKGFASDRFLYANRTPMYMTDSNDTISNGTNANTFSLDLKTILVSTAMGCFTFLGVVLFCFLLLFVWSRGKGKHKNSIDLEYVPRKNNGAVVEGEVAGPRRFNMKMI
Nature of the experiment: apparent KD, FACS saturation binding on CHO-K1-hLINGO-2 cells, IgG4 format.

In experiment [7] the target is human LINGO-1 expressed on CHO-K1 cells (CHO-K1-hLINGO-1) (human) (UniProt Q96FE5). The experiment in a line: apparent KD, FACS saturation binding on CHO-K1-hLINGO-1 cells, IgG4 pre-incubated in FACS buffer + 2.6% BSA.
For experiment [8] the target is unchanged. Nature of the experiment: apparent KD, FACS saturation binding on CHO-K1-hLINGO-1 cells, IgG4 pre-incubated in FACS buffer + 50% human serum.
The target is the same in experiment [9]. Nature of the experiment: apparent KD, FACS saturation binding on CHO-K1-hLINGO-1 cells, IgG4 format.
The target is the same in experiment [10]. Nature of the experiment: apparent KD, FACS saturation binding on CHO-K1-hLINGO-1 cells, IgG4, without 50% human cerebro-spinal fluid (control).

B1: anti-LINGO-1 IgG4 antibody 4785 (antibody, V domains shown)
VH: QVQLQQSGPGLVKPSQTLSLTCAISGDSVSDNSAAWSWIRQSPGRGLEWLGLIYLRSKWDNDYAVSVKSRITINPDTSKNQFSLQLNSVTPEDTAVYYCARTGRADEFDVWGQGTLVTVSS
VL: DIVLTQPPSVSGAPGQRVTISCSGSSSNIGNNYVSWYQQLPGTAPKLLISRNSKRPSGVPDRFSGSKSGTSASLAITGLQSEDEADYYCSTYDTFSIVFGGGTKLTVLG
Turning to B1, the Kd was determined as 70 pM in [1]; 250 pM in experiment [2]; 180 pM in [3]; 80 pM in experiment [4]; 950 pM in experiment [6]; 50 pM in experiment [7]. Further, the Kd in [8] turned out to be 60 pM; in experiment [9], 70 pM; in experiment [10], 190 pM. In [5], the App. KD ratio w/o CSF:w/ CSF was determined as 0.76.

Source of the values: patent US20140255415A1 (Novartis, published 2014).
